Laboratory results from US20250051465A1 (published 2025).

T1: human LEPR extracellular domain expressed with a C-terminal mouse IgG2a Fc tag (hLEPR.mFc) (human)
T1 construct: also called dimeric human LEPR
T1 chain: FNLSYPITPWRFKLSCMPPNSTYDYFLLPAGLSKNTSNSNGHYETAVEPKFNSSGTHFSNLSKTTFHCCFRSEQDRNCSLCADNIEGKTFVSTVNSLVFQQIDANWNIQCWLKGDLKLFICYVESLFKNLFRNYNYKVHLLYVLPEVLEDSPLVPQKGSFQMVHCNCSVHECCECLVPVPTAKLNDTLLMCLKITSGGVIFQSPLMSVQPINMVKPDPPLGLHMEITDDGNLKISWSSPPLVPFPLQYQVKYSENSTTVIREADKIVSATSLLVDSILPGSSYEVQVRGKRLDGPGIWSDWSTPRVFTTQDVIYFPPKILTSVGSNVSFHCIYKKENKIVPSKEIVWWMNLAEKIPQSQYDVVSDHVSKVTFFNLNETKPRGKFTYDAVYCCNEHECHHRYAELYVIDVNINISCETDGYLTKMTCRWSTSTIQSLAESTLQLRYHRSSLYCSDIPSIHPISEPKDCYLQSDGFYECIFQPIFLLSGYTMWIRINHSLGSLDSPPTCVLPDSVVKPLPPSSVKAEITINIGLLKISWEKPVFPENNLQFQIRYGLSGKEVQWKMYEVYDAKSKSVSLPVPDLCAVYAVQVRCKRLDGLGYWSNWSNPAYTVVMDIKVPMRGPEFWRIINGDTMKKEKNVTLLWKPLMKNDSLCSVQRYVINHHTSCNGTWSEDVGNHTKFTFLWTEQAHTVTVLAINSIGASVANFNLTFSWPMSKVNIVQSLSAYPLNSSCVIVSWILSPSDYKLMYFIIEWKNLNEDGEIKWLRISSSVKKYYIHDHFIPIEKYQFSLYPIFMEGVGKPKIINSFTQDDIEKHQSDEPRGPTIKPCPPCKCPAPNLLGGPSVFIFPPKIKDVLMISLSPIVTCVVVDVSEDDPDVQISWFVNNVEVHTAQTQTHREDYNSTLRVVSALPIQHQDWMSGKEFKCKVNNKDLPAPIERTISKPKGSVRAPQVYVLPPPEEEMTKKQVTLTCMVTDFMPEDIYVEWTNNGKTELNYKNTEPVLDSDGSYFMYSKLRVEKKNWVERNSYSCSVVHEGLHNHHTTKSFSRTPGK


Tests used:
[1] = target: T2, human LEPR extracellular domain expressed with a C-terminal myc-myc-hexahistidine tag (hLEPR.mmh) (human, UniProt P48357 22-839); test: Luminex, myc-captured full length extracellular domain
T2 construct: also called human LEPR-MMH; monomeric human LEPR
Description: Aliquots of microspheres with immobilized anti-myc monoclonal antibodies, prepared as described above, were added individually to 1 mL of the each of these protein supernatants. The microspheres were gently mixed, incubated for two hours at 25° C., washed twice with 1 mL of DBPS, centrifuged to remove the supernatant and finally resuspended in 1 mL of DPBS buffer. Forty-eight μL of anti-myc IgG coupled microspheres from individual reactions with full length human LEPR and with each of the human LEPR domain proteins were withdrawn and mixed together in 3.6 mL of PBS+20 mg/mL BSA+0.05% sodium azide (blocking buffer).
From this mixed pool, 75 μL of microspheres were plated per well on a 96 well filter plate (Millipore, Cat. No: MSBVN1250) and mixed with 25 μL of individual anti-human LEPR monoclonal antibodies (0.5 or 5 µg/mL), incubated for two hours at 25° C. and then washed twice with 200 μL of DPBS with 0.05% Tween 20 (washing buffer). […] After 30 minutes, the samples were washed twice with 200 μL of washing buffer and resuspended in 150 μL of wash buffer. The Median Fluorescence intensity (MFI) of the microspheres was measured in a Luminex Analyzer.

[2] = target: T3, Macaca fascicularis LEPR extracellular domain expressed with a C-terminal myc-myc-hexahistidine tag … (Macaca fascicularis, UniProt Q9MYL0 22-837 (rhesus entry)); test: SPR, captured mAb, 37C
T3 construct: also called mfLEP.MMH
Description: (§1) Equilibrium dissociation constants (KD values) for LEPR binding to purified anti-LEPR monoclonal antibodies were determined using a real-time surface plasmon resonance biosensor using a Biacore 4000 instrument. All binding studies were performed in 10 mM HEPES, 150 mM NaCl, 3 mM EDTA, and 0.05% v/v Surfactant Tween-20, pH 7.4 (HBS-ET) running buffer at 25° C. and 37° C. The Biacore sensor surface was first derivatized by amine coupling with a monoclonal mouse anti-human Fc antibody (GE, #BR-1008-39) to capture anti-LEPR monoclonal antibodies. […] Kinetic association (kₐ) and dissociation (kd) rate constants were determined by fitting the real-time binding sensorgrams to a 1:1 binding model with mass transport limitation using Scrubber 2.0c curve-fitting software. Binding dissociation equilibrium constants (KD) and dissociative half-lives (t½) were calculated from the kinetic rate constants as: […]

[3] = target: T1, human LEPR extracellular domain …; test: SPR, captured mAb, 37C
Description: as §1

[4] = target: T2, human LEPR extracellular domain …; test: SPR, captured mAb, 37C
Description: as §1

[5] = target: T3, Macaca fascicularis LEPR extracellular …; test: SPR, captured mAb, 25C
Description: as §1

[6] = target: T1, human LEPR extracellular domain …; test: SPR, captured mAb, 25C
Description: as §1

[7] = target: T2, human LEPR extracellular domain …; test: SPR, captured mAb, 25C
Description: as §1

| Binder | MFI [1] | 100 nM mfLEPR.MMH Bound (RU) [2] | Kd [2] | koff [2] | kon [2] | t½ [2] | 100 nM hLEPR-mFc Bound (RU) [3] | Kd [3] | koff [3] | kon [3] | t½ [3] | 100 nM hLEPR-MMH Bound (RU) [4] | Kd [4] | koff [4] | kon [4] | t½ [4] | 100 nM mfLEP.MMH Bound (RU) [5] | Kd [5] | koff [5] | kon [5] | also measured |
| --- | --- | --- | --- | --- | --- | --- | --- | --- | --- | --- | --- | --- | --- | --- | --- | --- | --- | --- | --- | --- | --- |
| H4H16650P2 (antibody, human IgG4, V domains shown, Fully human antibody with human IgG4 Fc (H4H prefix)) VH: QVQLVESGGGVVQPGKSLRLSCVASGFTFSSDAMYWVRQAPGKGLEWVAVIYYDGNYQYYEDSVKGRFTISRDNSQNTLDLQMNSLRVDDTAVYFCARLNWDYWYLDLWGRGTLVTVSS VL: not shown | 7600 MFI | 134 RU | 5.76 nM | 0.0007 s⁻¹ | 122000 M⁻¹ s⁻¹ | 16 min | 145 RU | 1.79 nM | 0.00028 s⁻¹ | 157000 M⁻¹ s⁻¹ | 41 min | 77 RU | 19.8 nM | 0.000958 s⁻¹ | 48500 M⁻¹ s⁻¹ | 12 min | 93 RU | 2.27 nM | 0.000137 s⁻¹ | 60200 M⁻¹ s⁻¹ | t½ [5]: 84 min; 100 nM hLEPR-mFc Bound (RU) [6]: 102 RU; Kd [6]: 0.785 nM; koff [6]: 8.32e-05 s⁻¹; kon [6]: 106000 M⁻¹ s⁻¹; t½ [6]: 139 min; 100 nM hLEPR-MMH Bound (RU) [7]: 51 RU; Kd [7]: 7.93 nM; koff [7]: 0.000223 s⁻¹; kon [7]: 28100 M⁻¹ s⁻¹; t½ [7]: 52 min |
| H4H16679P2 (antibody, human IgG4, V domains shown, Fully human antibody with human IgG4 Fc (H4H prefix)) VH: QVQLVESGGGVVQPGRSLRLSCTASGFTFSSYAMYWVRQAPGKGLEWVSVIYYDGSYKYYADSVKGRFTISRDNSKNTLYLQMDSLRAEDTAVYYCASYNWNYWYFDFWGRGTLVTVSS VL: not shown | 7510 MFI | 104 RU | 10.4 nM | 0.000677 s⁻¹ | 64900 M⁻¹ s⁻¹ | 17 min | 116 RU | 2.56 nM | 0.00031 s⁻¹ | 121000 M⁻¹ s⁻¹ | 37 min | 61 RU | 21.9 nM | 0.000842 s⁻¹ | 38400 M⁻¹ s⁻¹ | 14 min | 66 RU | 3.22 nM | 0.000141 s⁻¹ | 43700 M⁻¹ s⁻¹ | t½ [5]: 82 min; 100 nM hLEPR-mFc Bound (RU) [6]: 78 RU; Kd [6]: 1.66 nM; koff [6]: 9.68e-05 s⁻¹; kon [6]: 58400 M⁻¹ s⁻¹; t½ [6]: 119 min; 100 nM hLEPR-MMH Bound (RU) [7]: 39 RU; Kd [7]: 10.5 nM; koff [7]: 0.000246 s⁻¹; kon [7]: 23400 M⁻¹ s⁻¹; t½ [7]: 47 min |
| H4H17321P2 (antibody, human IgG4, V domains shown, Fully human antibody with human IgG4 Fc (H4H prefix)) VH: QVQLVESGGGVVQPGRSLRLSCEASGFSSSDNAMYWVRQAPGKGLEWVSVIYHDGSYKYYEDSVKGRFTIARDNSKNTLYLQMNSLRAEDTAVYYCARYNWNHWYFDVWGRGTLVTVSS VL: not shown | 4700 MFI | 143 RU | 5.18 nM | 0.000257 s⁻¹ | 49700 M⁻¹ s⁻¹ | 45 min | 110 RU | 3.15 nM | 0.000174 s⁻¹ | 55300 M⁻¹ s⁻¹ | 66 min | 61 RU | 14.8 nM | 0.000438 s⁻¹ | 29500 M⁻¹ s⁻¹ | 26 min | 75 RU | 4.07 nM | 0.000133 s⁻¹ | 32600 M⁻¹ s⁻¹ | t½ [5]: 87 min; 100 nM hLEPR-mFc Bound (RU) [6]: 65 RU; Kd [6]: 2.18 nM; koff [6]: 8.93e-05 s⁻¹; kon [6]: 41000 M⁻¹ s⁻¹; t½ [6]: 129 min; 100 nM hLEPR-MMH Bound (RU) [7]: 32 RU; Kd [7]: 8.31 nM; koff [7]: 0.000196 s⁻¹; kon [7]: 23600 M⁻¹ s⁻¹; t½ [7]: 59 min |
| H4H17319P2 (antibody, human IgG4, V domains shown, Fully human antibody with human IgG4 Fc (H4H prefix)) VH: QVQLVESGGSVVQPGRSLRLSCAASGFTFSTYAMYWVRQTPGKGLEWVAVLYSDGSNKYYIDSVKGRFTISRDTSTNTLYLQMSSLRADDSALYYCARLNWDYWYFDLWGRGTLVTVSS VL: not shown | 3300 MFI | 113 RU | 60.1 nM | 0.00324 s⁻¹ | 53900 M⁻¹ s⁻¹ | 3.6 min | 100 RU | 7.66 nM | 0.000652 s⁻¹ | 85100 M⁻¹ s⁻¹ | 18 min | 44 RU | 96.3 nM | 0.00341 s⁻¹ | 35400 M⁻¹ s⁻¹ | 3.4 min | 83 RU | 11.6 nM | 0.000463 s⁻¹ | 40000 M⁻¹ s⁻¹ | t½ [5]: 25 min; 100 nM hLEPR-mFc Bound (RU) [6]: 69 RU; Kd [6]: 3.45 nM; koff [6]: 0.000164 s⁻¹; kon [6]: 47700 M⁻¹ s⁻¹; t½ [6]: 70 min; 100 nM hLEPR-MMH Bound (RU) [7]: 36 RU; Kd [7]: 20.3 nM; koff [7]: 0.000529 s⁻¹; kon [7]: 26100 M⁻¹ s⁻¹; t½ [7]: 22 min |
